Publication PMC2789033

Key:
[1] = target: F5/8C module of LamA (Paenibacillus β-1,3-glucanase), residues 1636-1793 (Paenibacillus sp. BCRC 17245); experiment: SEC; Sephacryl S-300 gel filtration column (Hiprep 16/60), 10 mM sodium acetate pH 5.8, 10% glycerol; monomer to dimer
[2] = target: F5/8C module of LamA (Paenibacillus β-1,3-glucanase), residues 1636-1793 (Paenibacillus sp. BCRC 17245); experiment: cross-linking; protein 0.65 mg/mL, 0.05% glutaraldehyde, room temperature, 1 h, 12% SDS-PAGE
[3] = target: F5/8C module of LamA (Paenibacillus β-1,3-glucanase), residues 1636-1793 (Paenibacillus sp. BCRC 17245); experiment: AUC; sedimentation velocity, 20°C, 42000 rpm, protein 0.17 mg/mL in 10 mM phosphate pH 7.0, 10% glycerol; c(s) by Sedfit94; monomer to dimer

## F5/8C module of LamA (Paenibacillus β-1,3-glucanase), residues 1636-1793 (domain or fragment)
[1]
  dimer fraction: 15%
  stoichiometry N: 2
[2]
  stoichiometry N: 2
[3]
  dimer fraction: 15%
  stoichiometry N: 2
